Measurements taken from PMC6638984, “Increased association between Epstein-Barr virus EBNA2 from type 2 strains and the transcriptional repressor BS69 restricts EBNA2 activity” (PLoS Pathogens, 2019).

Molecular target: T1, BS69CC-MYND (BS69 amino acid 480–602, CC-MYND domain) (Homo sapiens, UniProt Q15326)
T1 construct: The BS69 CC-MYND domain (amino acids 480–602) was amplified from pCI-BS69; GST (N, cleaved yes); 6xHis (N, cleaved yes); made in house; host or cells: E. coli Rosetta 2 (DE3) pLysS
T1 sequence (Q15326 480-602): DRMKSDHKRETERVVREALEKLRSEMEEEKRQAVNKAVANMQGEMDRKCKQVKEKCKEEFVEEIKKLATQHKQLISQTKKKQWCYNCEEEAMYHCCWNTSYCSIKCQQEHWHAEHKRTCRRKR
Assay: Isothermal titration calorimetry (ITC) of EBNA2 peptides and polypeptides binding to BS69CC-MYND
Details: 25°C, mean ± SD of 3 independent experiments; for n value (stoichiometry of BS69CC-MYND/EBNA2 binding, monomeric proteins), one-site model: pH 7.5, polypeptides 19 x 2.0 μl injections into 0.1 mM BS69CC-MYND
Source text: We hypothesised that the impaired gene activation and growth maintenance properties of type 2 EBNA2 may be the result of increased binding to BS69 as a result of the aspartate to serine amino acid difference adjacent to BS69 binding motif 2. […] We used isothermal titration calorimetry (ITC) to determine the affinity of peptide binding to the C-terminal region of BS69 (amino acid 480–602) comprising the CC-MYND domain that we expressed and purified from E.coli (Fig 1B and 1C). […] The difference in binding between type 1 and type 2 EBNA2 motif 2 peptides could be influenced by both the aspartate to serine change and differences in two other amino acids present in the sequence (Fig 1B and 1C).
The BS69 CC-MYND domain (amino acids 480–602) was amplified from pCI-BS69 containing the full length human BS69 sequence (gift from Dr Stéphane Ansieau) and cloned using SLIC into the SmaI and HindIII sites of pET49b+ to generate a construct expressing an N-terminal GST-6x Histidine tag BS69CC-MYND fusion protein (S2 Table).
Four commercially synthesized peptides (Peptide Synthetics) were used for ITC. These included BS69 binding motif 2 of type 1 EBNA2 (435–445) or type 2 EBNA2 (402–412) and putative BS69 binding motif 3 of type 1 EBNA2 (445–455) or type 2 EBNA2 (412–422).
Frozen protein was quickly thawed using running water and dialysed overnight at 4°C using Slide-A-Lyzer MINI Dialysis Units (Thermo Scientific) against ITC buffer (20mM Tris-HCl, 100mM NaCl and 1mM TCEP, pH 7.5). The next day, protein samples were centrifuged at 13000 rpm for 10 mins at 4 °C and the concentration was determined by NanoDrop spectroscopy (NanoDrop Technologies) with their respective molecular weights and extinction coefficients. EBNA2 peptides (1mM) and polypeptides (type 1, 0.3 mM and type 2, 0.6 mM) were titrated against BS69CC-MYND (0.1mM) at 25°C using a MicroCalTM iTC200 instrument (Malvern). For peptides, 13 x 3.0 μl injections were used for titration. For EBNA2 polypeptides 19 x 2.0 μl or 29 x 1.3 μl injections were used for titration. ITC data were corrected for non-specific heat and analysed using MicroCal Origin 7.0. The experiments were performed in triplicate alongside a control experiment with no BS69CC-MYND (buffer only in the cell). All polypeptides were used within 24 hrs of dialysis into ITC buffer.

[1] = pH 7.5, peptides 13 injections, polypeptides 19 injections

Substance	Kd (20mM Tris-HCl, 100mM NaCl, 1mM TCEP, pH 7.5, EBNA2 titrated into 0.1 mM BS69CC-MYND, peptides 1 mM, 13 injections, n fixed to 1, polypeptides 19 x 2.0 μl injections, read-out: KD (dissociation constant), one-site (one event) binding model) [nM]	-TΔS, one-site model [1] [kcal/mol]	ΔG, one-site model [1] [kcal/mol]	ΔH, one-site model [1] [kcal/mol]	n value (stoichiometry of BS69CC-MYND/EBNA2 binding, monomeric proteins), one-site model	n value (stoichiometry of BS69CC-MYND/EBNA2 binding, monomeric proteins), one-site model (listed as type 1 EBNA2_381-445)	KD (dissociation constant), one-site (one event) binding model (20mM Tris-HCl, 100mM NaCl, 1mM TCEP, pH 7.5, EBNA2 titrated into 0.1 mM BS69CC-MYND, peptides 1 mM, 13 injections, n fixed to 1, polypeptides 19 x 2.0 μl injections)
T1 EBNA2_381-445: type 1 EBNA2 polypeptide, amino acids 381–445, expressed and purified from E.coli	950	18.4 ± 0.46	-8.22 ± 0.08	-26.6 ± 0.53	0.42 ± 0.02	0.42	
YPPSIDPADLD [T1 EBNA2 motif 3]							not able to detect any binding
